Measured values as given in PMC5931557.

Columns and labels:
[1] = non-reducing SDS-PAGE immunoblot, transient overexpression; conditions: glycan lost; control: WT mTRAIL-R
[2] = cell surface staining, flow cytometry; reducing immunoblot; conditions: glycan lost; control: WT mTRAIL-R
[3] = cell surface flow cytometry, 7 h TU; conditions: glycan lost; control: untreated MEFs
[4] = streptavidin pulldown, non-reducing immunoblot; conditions: glycan lost; control: untreated MEFs

B1: mTRAIL-R: N99/N122/N150Q (protein)
parent chain: MEPPGPSTPTASAAARADHYTPGLRPLPKRRLLYSFALLLAVLQAVFVPVTANPAHNRPAGLQRPEESPSRGPCLAGQYLSEGNCKPCREGIDYTSHSNHSLDSCILCTVCKEDKVVETRCNITTNTVCRCKPGTFEDKDSPEICQSCSNCTDGEEELTSCTPRENRKCVSKTAWASWHKLGLWIGLLVPVVLLIGALLVWKTGAWRQWLLCIKRGCERDPESANSVHSSLLDRQTSSTTNDSNHNTEPGKTQKTGKKLLVPVNGNDSADDLKFIFEYCSDIVPFDSWNRLMRQLGLTDNQIQMVKAETLVTREALYQMLLKWRHQTGRSASINHLLDALEAVEERDAMEKIEDYAVKSGRFTYQNAAAQPETGPGGSQCV
With B1 the oligomerisation [1] was “changes” and the expression_or_secretion [2] was “no change, the mean intensity of the signal was even weaker for the N99/N122/N150Q mTRAIL-R-expressing cells”.

B2: mTRAIL-R: tunicamycin (protein)
parent chain: B1 parent chain
For B2, the localisation_or_trafficking [3] was “no change” and the oligomerisation [4] was “changes”.
